This is an account of results in patent publication US20160199473A1 (Johns Hopkins, published 2016).

Assay [1] deals with T1, HLA-A3 (HLA-A301 allele) on T2-A3 cells (human).
T1 construct: whole, on cells; MHC class I molecule on the surface of T2-A3 cells
As to the kind of experiment: T2 binding assay, flow cytometry with GAPA3 (FIG. 1E). The text has this: (§1) Peptide pulsed cells were stained with an unlabeled mouse anti-HLA class I molecule monoclonal antibody W6/32 and a goat-anti-mouse FITC-labeled IgG2a secondary antibody. FIG. 1E. T2 cells genetically modified to express A3 and pulsed with either: Mesothelin A1309-318 binding peptide (green line), PSCA A399-107 (pink line), A35-13 (blue line), A314-22 (orange line), A3109-117 (purple line), A343-51 (red line), and PSCA A320-28 (yellow line). Peptide pulsed cells were stained with an unlabeled mouse anti-human HLA-A3 specific monoclonal antibody GAPA3 and a FITC-labeled IgG2a secondary antibody. FIG. 1F. T2 cells genetically modified to express A24 and pulsed with either: Mesothelin A1309-318 peptide (green line), PSCA A2476-84 (pink line), PSCA A24108-116 (blue line), PSCA A2499-107 (orange line), PSCA A24109-117 (purple line), and PSCA A2477-85 (red line). Peptide pulsed cells were stained with an unlabeled pan-HLA antibody W6/32 and a FITC-labeled IgG2a secondary antibody.
(§2) Binding of these epitopes to their respective HLA class I molecule was tested by pulsing TAP deficient T2 cells that expressed the corresponding HLA class I molecule (T2-A2, T2-A3, or T2-A24 cells). […] Binding of T2 cells pulsed with two candidate mesothelin derived HLA-A3 and two candidate HLA-A24 epitopes are shown in FIG. 1B and FIG. 1C, respectively. A similar binding experiment was done with the PSCA derived peptides for HLA-A2, HLA-A3, and HLA-A24. (FIG. 1D, FIG. 1E and FIG. 1F).
(§3) Materials and Methods: Peptide/MHC binding Assays. T2 cells expressing the HLA molecule of interest were resuspended in AimV serum free media (Gibco) to a concentration of 2.5×10⁵ cells/ml and pulsed with 100-200 micrograms of peptide at room temperature overnight. Pulsing at room temperature allows for optimizing the number of empty HLA molecules available for binding each epitope (30). The cells were washed and resuspended at 1×10⁵ cells/ml. Peptide binding was determined by FACS (Beckon Dickenson, San Jose, Calif.) analysis.
Background: In flow cytometry, cells or beads pass a laser one at a time.

Assay [2] has as its target T1, HLA-A3 (HLA-A301 allele) on T2-A3 cells. The assay can be described thus: T2 binding assay, flow cytometry with GAPA3 (FIG. 1B).
Description: as §1
(§4) Binding of these epitopes to their respective HLA class I molecule was tested by pulsing TAP deficient T2 cells that expressed the corresponding HLA class I molecule (T2-A2, T2-A3, or T2-A24 cells). […]
(§5) Materials and Methods: Peptide/MHC binding Assays. […] Peptide binding was determined by FACS (Beckon Dickenson, San Jose, Calif.) analysis.

Assay [3] deals with T2, HLA-A2 (HLA-A*0201 allele) on T2 cells (human).
T2 construct: whole, on cells; MHC class I molecule on the surface of T2 cells; also called T2-A2 cells
The assay can be described thus: T2 binding assay, flow cytometry with W6/32 (FIG. 1D).
Description: as §1, §2, §3

Assay [4] has as its target T2, HLA-A2 (HLA-A*0201 allele) on T2 cells. As to the kind of experiment: T2 peptide/MHC binding assay, flow cytometry with W6/32.
Description: as §1, §4, §5

For assay [5] the target is unchanged. The assay can be described thus: T2 binding assay, flow cytometry with W6/32 (FIG. 1A).
Description: as §1, §4, §5

B1: PSCA (20-28) peptide ALLCYSCKA (peptide)
peptide: ALLCYSCKA
notes: Synthetic nonamer from prostate stem cell antigen; also called PSCA A3(20-28); PSCA A320-28
Regarding B1, the binding result in assay [1] was “binds”.

B2: Mesothelin A3(225-234) (peptide)
peptide: ALQGGGPPY
notes: Synthetic nonamer from mesothelin; printed range spans ten positions; also called MesoA3(225-234)
Regarding B2, the binding result in assay [2] is given as “binds”.

B3: PSCA (5-13) peptide LLALLMAGL (peptide)
peptide: LLALLMAGL
notes: Synthetic nonamer from prostate stem cell antigen; also called PSCA A2(5-13); PSCA A3(5-13)
For B3, the binding result in assay [1] and in assay [3] was “binds” in each case.

B4: PSCA (108-116) peptide ALLPALGLL (peptide)
peptide: ALLPALGLL
notes: Synthetic nonamer from prostate stem cell antigen; also called PSCA A2(108-116); PSCA A24(108-116)
With B4, the binding result in assay [3] is “binds”.

B5: Mesothelin A2(20-28) (peptide)
peptide: SLLFLLFSL
notes: Synthetic nonamer from mesothelin; legends print the position as 20-29; also called Mesothelin A220-29; MesoA2(20-29)
For the molecule B5, in assay [4], the binding result is recorded as “binds”.

B6: PSCA (14-22) peptide ALQPGTALL (peptide)
peptide: ALQPGTALL
notes: Synthetic nonamer from prostate stem cell antigen; also called PSCA A2(14-22); PSCA A3(14-22)
Take B6: the binding result in assay [1] and in assay [3] was “binds” in each case.

B7: Mesothelin A3(83-92) (peptide)
peptide: ELAVALAQK
notes: Synthetic nonamer from mesothelin; printed range spans ten positions; also called MesoA3(83-92)
Regarding B7, in assay [2], the binding result was “binds”.

B8: PSCA (43-51) peptide QLGEQCWTA (peptide)
peptide: QLGEQCWTA
notes: Synthetic nonamer from prostate stem cell antigen; also called PSCA A3(43-51); PSCA A243-51
As for B8, the binding result in assay [1] and in assay [3] was “binds” in each case.

B9: PSCA (109-117) peptide LLPALGLLL (peptide)
peptide: LLPALGLLL
notes: Synthetic nonamer from prostate stem cell antigen; also called PSCA A3(109-117); PSCA A24(109-117)
For the molecule B9, the binding result in assay [1] was “binds”.

B10: Mesothelin A2(530-538) (peptide)
peptide: VLPLTVAEV
notes: Synthetic nonamer from mesothelin; legends print the position as 530-539; also called Mesothelin A2530-539; MesoA2(530-539)
For B10, the binding result in assay [5] is given as “binds”.

B11: PSCA (99-107) peptide ALQPAAAIL (peptide)
peptide: ALQPAAAIL
notes: Synthetic nonamer from prostate stem cell antigen; also called PSCA A3(99-107); PSCA A24(99-107)
For the molecule B11, the binding result in assay [1] is recorded as “binds”.

B12: Mesothelin A1309-318 binding epitope (EIDESLIFY) (peptide)
peptide: EIDESLIFY
notes: also called Mesothelin A1309-318 peptide
As to B12, the binding result in assay [4] is “no binding”.
